Laboratory results published in US20220112276A1 (Janssen / Centocor, published 2022).

B1: 01C09R3LS His-tagged VHH (VHH)
VHH: EVQLVESGGGLVQAGGSLRLSCAASGRTINTYVMGWFRQAPGKEREFVARIDWSGSSTDYADSVKGRFTISRDNAKNTVYLQMNSLKPEDTAVYYCAGSAYYSGYVTHRDFGSWGQGTQVTVSS
B2: 01D07R3LS His-tagged VHH (VHH)
VHH: QVQLVESGGGLVQAGGSLRLSCAASGRTINTYVMGWFRQAPGKEREFVARIDWSGSSTDYADSVKGRFTISRDNAKNTVYLQMNSLKPEDTAVYYCAGSAYYSGYVTHRDFGSWGQGTLVTVSS
B3: 01E09R3LS His-tagged VHH (VHH)
VHH: EVQLVESGGGLVQAGGSLRLSCAASGRTINTYVMGWFRQAPGKEREFVARIDWSGSSTDYADSVKGRFTTSRDNAKNTVYLQMNGLKPEDTAVYYCAGSAYYSGYVTHRDFGSWGQGTLVTVSS
B4: 01F11R2 His-tagged VHH (VHH)
VHH: EVQLVESGGGLVQAGGSLRLSCAASGRTLNTYVMGWFRQAPGKEREFVARIDWSGSTTDYADSVKGRFTISRDNAKNTVYLQMNSLKPEDTAVYYCAGSAYYSGYVTHRDFGSWGQGTQVTVSS
B5: 01C05R3LS His-tagged VHH (VHH)
VHH: EVQLVESGGGLVQAGGSLRLSCAASGRTINTYVMGWFRQAPGKEREFVARIDWSGSSTDYADSVKGRFTISRDNAKNTVYLQMNSLKPEDTAVYYCAGSAYYSGYVTHRDFGSWGQGTLVTVSS
B6: 01B10R3LS His-tagged VHH (VHH)
VHH: QVQLVESGGGLVQAGGSLRLSCAASGRTIYGYVMGWFRQAPGKEREFVARIDWSGSSTDYADSVKGRFTISRDNAKNTVYLQMNSLKPEDTAVYYCAGSAYYSGYVTHRDFGSWGQGTQVTVSS
B7: 01B12R3LS His-tagged VHH (VHH)
VHH: EVQLVESGGGLVQAGGSLRLSCAASGRTINGYVMGWFRQAPGKEREFVARIDWSGSSTDYADSVKGRFTISRDNAKTTVYLQMNSLKPEDTAVYYCAGSAYYSGYVTHRDFGSWGQGTQVTVSS
B8: 01G10R3LS His-tagged VHH (VHH)
VHH: EVQLVESGGGLVQAGGSLRLSCAASGRTINTYVTGWFRQAPGKEREFVARIDWSGSSTDYADSVKGRFTISRDNAKNTVYLQMNSLKPEDTAVYYCAGSAYYSGYVTHRDFGSWGQGTQVTVSS
B9: 01H11R3LS His-tagged VHH (VHH)
VHH: QVQLVESGGGLVQAGGSLRLSCAASGRTINGYVMGWFRQAPGKEREFVARIDWSGSSTDYADSVKGRFTISRDNAKTTVYLQTNSLKPEDTAVYYCAGSAYYSGYVTHRDFGSWGQGTQVTVSS
B10: 01F03R3LS His-tagged VHH (VHH)
VHH: EVQLVESGGGLVQAGGSLRLSCAASGRTINGYVMGWFRQAPGEEREFVARIDWSGSSTDYADSVKGRFTISRDNAKITVYLQMNSLKPEDTAVYYCAGSAYYSGYVTHRDFGSWGQGTLVTVSS
B11: 01G09R2 His-tagged VHH (VHH)
VHH: EVQLVESGGGLVQAGGSLRLSCAASGRTINTYVMGWFRQAPGKEREFVARIDWSGSSTDYADSAKGRFTISRDNAKNTVYLQMNSLKPEDTAVYYCAGSAYYSGYVTHRDFGSWGQGTLVTVSS
B12: 01C03R3 His-tagged VHH (VHH)
VHH: QVQLVESGGGLVQAGGSLRLSCAASGRTFSSYAMGWFRQAPGKEREFVAAIHWNGASTYRYSADSVKGRFTISRDNAKNTVYLQMNSLKPEDTAAYYCAASPPPTVGDVRDPANYDSWGQGTLVTVSS
B13: 01C03R3LS His-tagged VHH (VHH)
VHH: EVQLVESGGGLVQPGGSLRLSCVASGLPGSSSRMAWFAQAPGKEREFVAAIAWRGRTSYKYYSDSVKGRFTVSGDNAKRTLDLQMKDLNPEDTALYFCAAHPNDDGDPRISGNYQYWGQGTQVTVSS
B14: 01B12R2 His-tagged VHH (VHH)
VHH: EVQLVESGGGLVQAGGSLRLSCAASGRTFSSGIMGWFRQAPGKEREFVAAIEWSGGNTYKYYAESVKGRFAISRDNAKTTAYLQMGSLNPEDTALYYCAADESPSRYIDLRRPAPYHYWGQGTLVTVSS
B15: 01H01R2LS His-tagged VHH (VHH)
VHH: EVQLVESGGGLVQTGGSLRLSCAASGRTFSPYAMGWFRQAPGKEREFVAAIRWSGATTYKYVGGSVQGRFTISRDAAGNTVYLQMNSVKPEDTAVYYCAADRVPKDISIDPRNPKDWDYWGKGTQVTVSS
B16: 01C02R2 His-tagged VHH (VHH)
VHH: EVQLVESGGGLVQAGGSLRLSCAASGRSYAMGWFRQAPGKEREFAAAISWSGSRTYYADAVKGRFTISRDNAKNTVYLQMNSLKPEDTAVYYCAADPDGTVVASSGWTNSYEYGYWGQGTLVTVSS
B17: 01B07R2L His-tagged VHH (VHH)
VHH: EVQLVESGGGLVQAGGSLRLSCAASGRTFSSDAVGWFRQAPGKEREFVAHIHWSGDFTTYYYYGDFVKGRFTISRGTAKNTVYLQMNSLKPEDTAVYYCAAPKGAIGDPRSTREYDYWGQGTLVTVSS
B18: 01A06R3LS His-tagged VHH (VHH)
VHH: EVQLVESGGGVVQAEDSLRLSCAASGLPFSSSRMGWFRQAPGKEREFVAAIGWSGRSTYKYYADSVKGRFTVSGDNAKKTLDLQMKDLKPEDTAVYYCAAHPDYYGDPRTSGAYRYWGQGTQVTVSS
B19: 01B07R3L His-tagged VHH (VHH)
VHH: EVQLVESGGGVVQAEDSLRLSCAASGLPFSSSRMGWFRQVPGKEREFVAAIGWSGRSTYRYYDDSVKGRFTVSGDNAKNTLDLQMKGLKPEDTAVYYCAADPNYYGDVRTSGTYQYWGQGTQVTVSS
B20: 01B08R2 His-tagged VHH (VHH)
VHH: EVQLVESGGRLVQAGGSLRLSCAASGLTRSDYAMGWFRQAPGKEREFVATLKWSEGSRFMYRAEDVKGRFTISSGAAKTTVWLDMDALNPEDTAVYYCAAGFNVGFVRRASEYNFWGQGTLVTVSS
B21: 01A02R3 His-tagged VHH (VHH)
VHH: EVQLVESGGGLVQSGGSLRLSCAASGRTFDQFTVGWFRQAPGKEREFVTAIRWSGSTTYRYYADSVKGRFTISRDNARNTVDLQMNSLKPEDSAVYYCAGQMSQWSDPRGDDYDSWGQGTLVTVSS
B22: 01C02R3 His-tagged VHH (VHH)
VHH: QVQLVESGGGLVQAGGSLRLSCAASGLSFSSYTMGWFRQVPGKERELISAIHWSGGPTFYSNSVKGRFTISRDNAKDTVYLQMNSLKPEDTAVYYCTAEPVGSMISPDWTYWGQGTLVTVSS
B23: 01C03R2L His-tagged VHH (VHH)
VHH: EVQLVESGGGLVQAGGSLRLSCAASGRTLRSYIVGWFRQAPGKEREFVAAVTWSDGRRVTADPVKGRFTISRDNAKNTVYLQMDSLKPEDAAVYYCAVSHGGAYVESRAYEYWGQGTQVTVSS

target: T1, recombinant human pIgR (hpIgR) (human, UniProt P01833 19-638, limits assumed); test: ELISA, periplasmic VHH, BSA subtracted
T1 construct: probably the ECD
Description: Initial Library Screening: After each panning round showing enrichment, 94 individual clones were expressed and tested in an off-phage initial screen for specific binding to mpIgR or hpIgR (respectively depending on the antigen used). Screening of monoclones in an off-phage format was performed by transforming the phagemid pool into a non-amber-suppressor strain of E. coli and picking random colonies. The VHH proteins were recovered in the periplasmic fraction by performing osmotic shock. Periplasmic fractions containing His-tagged nanobodies were tested for binding to hpIgR or mpIgR. Bound nanobody was detected with a polyclonal anti-alpaca VHH domain antibody. Each clone was also tested for non-specific binding to BSA in parallel. The ELISA values obtained on BSA were subtracted from the ELISA values obtained on the respective pIgR antigen.
Repeat Testing of Positive Hits: The hits identified in the initial screen of the phage pools were re-tested for binding to either hpIgR or mpIgR. Periplasmic fractions were prepared again by performing osmotic shock. Periplasmic fractions containing His-tagged nanobodies were tested for binding to mpIgR. In this assay, bound nanobody was detected with an anti-VHH antibody. Each clone was also tested for non-specific binding to BSA in parallel. The ELISA values obtained on BSA were subtracted from the ELISA values obtained on the respective pIgR antigen.

T1 sequence (P01833 19-638 limits assumed): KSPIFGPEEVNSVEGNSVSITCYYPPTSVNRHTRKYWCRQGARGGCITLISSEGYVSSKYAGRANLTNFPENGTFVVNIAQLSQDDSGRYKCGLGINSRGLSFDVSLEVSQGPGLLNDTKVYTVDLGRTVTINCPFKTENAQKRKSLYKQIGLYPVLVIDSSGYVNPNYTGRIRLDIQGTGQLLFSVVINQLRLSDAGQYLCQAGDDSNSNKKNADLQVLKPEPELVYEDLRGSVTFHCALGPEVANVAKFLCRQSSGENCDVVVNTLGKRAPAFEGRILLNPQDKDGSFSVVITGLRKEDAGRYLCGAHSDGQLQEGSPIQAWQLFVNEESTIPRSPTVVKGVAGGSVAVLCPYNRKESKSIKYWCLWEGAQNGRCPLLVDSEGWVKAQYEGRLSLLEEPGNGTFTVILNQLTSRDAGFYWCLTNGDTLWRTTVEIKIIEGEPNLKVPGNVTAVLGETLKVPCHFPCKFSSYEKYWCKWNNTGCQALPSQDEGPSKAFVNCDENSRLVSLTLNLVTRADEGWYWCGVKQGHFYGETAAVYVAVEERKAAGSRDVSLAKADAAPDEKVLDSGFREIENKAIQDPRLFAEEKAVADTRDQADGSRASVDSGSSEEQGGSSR

**Q.** For B1, which “ELISA (OD)” value is on record?
**A.** 1.64 OD

**Q.** For B2, which “ELISA (OD)” value is on record?
**A.** 2.07 OD

**Q.** With B3 as the binder, how does the “ELISA (OD)” value read?
**A.** 1.97 OD

**Q.** How did the “ELISA (OD)” value turn out when B4 was run?
**A.** 0.62 OD

**Q.** For B5, which “ELISA (OD)” value is on record?
**A.** 1.89 OD

**Q.** How did the “ELISA (OD)” value turn out when B6 was run?
**A.** 1.91 OD

**Q.** B7 was tested. Which “ELISA (OD)” value did it give?
**A.** 2.17 OD

**Q.** B8 was tested. Which “ELISA (OD)” value did it give?
**A.** 1.96 OD

**Q.** B9 was tested. Which “ELISA (OD)” value did it give?
**A.** 0.99 OD

**Q.** Which “ELISA (OD)” value does the source give for B10 here?
**A.** 2.35 OD

**Q.** B11 was tested. Which “ELISA (OD)” value did it give?
**A.** 2 OD

**Q.** Which “ELISA (OD)” value does the source give for B12 here?
**A.** 0.56 OD

**Q.** B13 was tested. Which “ELISA (OD)” value did it give?
**A.** 2.11 OD

**Q.** B14 was tested. Which “ELISA (OD)” value did it give?
**A.** 1.78 OD

**Q.** Which “ELISA (OD)” value does the source give for B15 here?
**A.** 1.17 OD

**Q.** With B16 as the binder, how does the “ELISA (OD)” value read?
**A.** 2.26 OD

**Q.** How did the “ELISA (OD)” value turn out when B17 was run?
**A.** 0.67 OD

**Q.** How did the “ELISA (OD)” value turn out when B18 was run?
**A.** 1.95 OD

**Q.** B19 was tested. Which “ELISA (OD)” value did it give?
**A.** 2.29 OD

**Q.** B20 was tested. Which “ELISA (OD)” value did it give?
**A.** 1.94 OD

**Q.** B21 was tested. Which “ELISA (OD)” value did it give?
**A.** 1.98 OD

**Q.** For B22, which “ELISA (OD)” value is on record?
**A.** 1.8 OD

**Q.** B23 was tested. Which “ELISA (OD)” value did it give?
**A.** 2.37 OD
